The assay addresses recombinant human IL-22R (R&D Systems / Biotechne 2770-LR) (human) (UniProt Q8N6P7). The experiment in a line: SPR (Biacore), purified Fab. (In general: Surface plasmon resonance follows binding to a sensor surface in real time, without labels.)

The record followed here is patent US20230088269A1.

recombinant human IL-22R (R&D Systems / Biotechne 2770-LR) (human), sequence (Q8N6P7 16-228 limits assumed): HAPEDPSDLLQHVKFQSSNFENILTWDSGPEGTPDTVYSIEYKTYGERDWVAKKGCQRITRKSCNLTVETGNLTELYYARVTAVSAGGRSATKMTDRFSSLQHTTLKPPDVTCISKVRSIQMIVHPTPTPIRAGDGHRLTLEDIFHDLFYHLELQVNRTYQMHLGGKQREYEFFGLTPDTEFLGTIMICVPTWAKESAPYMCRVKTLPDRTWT

B1: 170B2 Fab (Fab, from another filing, V domains shown)
VH: EVQLVESGGGLVQPGGSLRLSCAASGFTFSSSWMYWVRQAPGKGLEFVSVINTRSGITHYVESVKGRFTISTDNAKNTLFLQMNSLKSEDTAVYYCATRIQGLIDYWGQGTQVTVSS
VL: DIVMTQSPSSLSVSLGDRVTITCQASQSIGSVNALAWYQQKPGQSLKLLIHGASRLQTGVPSRFSGSGSGTSFTLAISGVEAEDLATYYCLQDYAWPLTFGQGTKVELK
B1: the koff was 0.00035 s⁻¹.

By koff is commonly meant the rate constant with which the complex falls apart.
